Results published in patent US20200157194A1 (Regeneron, published 2020).
Changes are numbered by the printed parent chain.

T1: human GREM1 (hGREM1-His; SEQ ID NO: 595) (human, UniProt O60565 25-184)
T1 construct: also called biotin-hGREM1-His; recombinant human GREM1 protein
T1 sequence: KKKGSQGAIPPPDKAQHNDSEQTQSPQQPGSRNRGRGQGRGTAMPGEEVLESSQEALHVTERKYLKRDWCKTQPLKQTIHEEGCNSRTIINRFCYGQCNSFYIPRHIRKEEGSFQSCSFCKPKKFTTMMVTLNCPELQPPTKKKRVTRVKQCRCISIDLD

T2: recombinant human GREM1 (hGREM1-His; C-terminal 10His tagged, R&D, #5190-GR) (human, UniProt O60565 25-184)
T2 construct: range 25-184; also called recombinant human GREM1 with a C-terminal decahistidine tag
T2 sequence: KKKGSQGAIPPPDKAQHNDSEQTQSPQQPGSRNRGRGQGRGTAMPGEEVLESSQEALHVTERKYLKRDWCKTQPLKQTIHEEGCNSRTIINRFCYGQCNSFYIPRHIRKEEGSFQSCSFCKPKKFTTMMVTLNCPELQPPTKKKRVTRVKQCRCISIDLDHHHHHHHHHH

B1: H4H2895N (antibody, human IgG4, V domains shown)
VH: EVQLVESGGGLVQPGGSLRLSCAASGFTVSSNYMSWVRQAPGKGLEWVSVIYSGGNTYYADSVKGRFTISRHNSKNTLYLQMNSLRAEDTAVYYCARDLGIKSDYWGQGTLVTVSS
VL: EIVLTQSPDFQSVTPKEKVTITCRASQSIGTTLHWYQQKPDQSPKLLIKYVSQSLSGVPSRFSGSGSGTDFTLTINSLEAEDAATYYCHQSSSLPWTFGQGTKVEIK
notes: H4H prefix = human IgG4 Fc
B2: H4H2897N (antibody, human IgG4, V domains shown)
VH: QVQLVESGGGVVQPGRSLRLSCAASGFTFTNYGMHWVRQAPGKGLEWVAAISYDGTNKYYADSVKGRFTISRDDSKNTLCLQMNSLRAEDTAVYYCAKEGTGEGFSFDYWGQGTLVTVSS
VL: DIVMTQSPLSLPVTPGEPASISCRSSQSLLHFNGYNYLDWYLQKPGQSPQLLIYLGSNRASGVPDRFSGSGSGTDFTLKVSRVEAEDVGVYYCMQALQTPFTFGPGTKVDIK
notes: H4H prefix = human IgG4 Fc
B3: H4H6236P (antibody, human IgG4, V domains shown)
VH: QVQLVQSGAEVKKPGASVKVSCKVSGYTLTELSMHWVRQAPGKGLEWMGGFDPEDGETIYAQKFQGRVTMTEDTSTETAYMELSSLRSEDTAVYYCATDDYDILTDYPYNMDVWGQGTTVTVSS
VL: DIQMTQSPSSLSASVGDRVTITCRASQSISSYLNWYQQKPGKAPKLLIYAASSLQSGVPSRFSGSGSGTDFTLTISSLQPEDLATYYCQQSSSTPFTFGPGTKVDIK
notes: H4H prefix = human IgG4 Fc
B4: H4H6232P (antibody, human IgG4, V domains shown)
VH: B3 VH with V68L, E77D, D106S
VL: DIQMTQSPSSLSASVGDRVTITCRASQSINNYLNWYQQKPGKAPKLLIYAASSLQSGVPSRFSGSGSGTDFTLTISSLQPEDFGTYYCQQSDSTPFTFGPGTKVDIK
notes: H4H prefix = human IgG4 Fc
B5: H4H2892N (antibody, human IgG4, V domains shown)
VH: QVQLVESGGGVVQPGRSLRLSCAASGFTFSSYGIHWVRQAPGKGLEWVAILWYDGSNKYYADSVKGRFTISRDNSKTTLYLQMNSLRAEDTAVYYCARENYNDLNFDLWGRGTLVTVSS
VL: DIQLTQSPSFLSASVGDRVTITCWASQGISSYLAWYQHKPGKAPKLLIYAASTLQSGVPSRFSGSGSGIEFTLTISSLQPEDFATYYCQQLKSYPPWTFGQGTKVEIR
notes: H4H prefix = human IgG4 Fc
B6: H4H2889N (antibody, human IgG4, V domains shown)
VH: QVQLQESGPGLVKPSETLSLTCTVSGGSISNSYWSWIRQPPGKGLEWIGYIYYSGNTNYNPSLKSRVTISVDTSKNQFSLKLSSVTAADTAVYYCARVNDYSNYDSYYYGMDVWGQGTTVTVSS
VL: AIQMTQSPSSLSASVGDRVTITCRASQGIRNDLGWYQQKPGKAPKLLIYAASSLQSGVPSRFSGSGSGTDFTLTISSLQPEDFATYYCLQDYNYPPTFGQGTKVDIK
notes: H4H prefix = human IgG4 Fc
B7: H4H2926N (antibody, human IgG4, V domains shown)
VH: EVQLVESGGGLVQTGRSLRLSCAASGFTFDDYAMNWVRQAPGKGLEWVSGISWNSGNIGYADSVKGRFTISRDNAKNSLYLQMNSLRAEDTALYYCVKYIGQQLVQDYFDYWGQGTLVTVSS
VL: DIQMTQSPSSLSASVGDRVTITCQASQDITNYLNWYQQRPGKAPKLLIYDAFNLERGVPSRFSGSGYGTYFTFTISSLQPEDIAIYYCQQYDNLPLTFGGGTKVEIE
notes: H4H prefix = human IgG4 Fc
B8: H4H2784N (antibody, human IgG4, V domains shown)
VH: QVQLVESGGGVVQPGRSLRLSCAASGFTFSSYGMHWVRQAPGKGLEWVTIIWHDGSNKYYADSVKGRFTISRDNSKNTLYLQMNSVRAEDTAVYYCARDEDFFDYWGQGTLVTVSS
VL: not shown
notes: H4H prefix = human IgG4 Fc

Target: T1, human GREM1 (hGREM1-His; SEQ ID NO: 595)
Assay: SPR, Biacore T200, 25 C, mAb captured, hGREM1-His injected;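 note: Heparin-supplemented HBS-EP+ used as running buffer, association and dissociation phases followed, Kd computed as koff divided by kon and half-life derived from koff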
Protocol: (§1) Kinetic experiments were carried out using HBS-EP+heparin [10 mM HEPES, 150 mM NaCl, 3 mM EDTA, 0.05% (v/v) surfactant P20, 10 μg/ml heparin sodium salt, pH 7.4] as both the running buffer and the sample buffer. […] Antigen-antibody association was monitored for 150 seconds while dissociation in buffer was monitored for 420 seconds. Kinetic analysis was performed using Scrubber software version 2.0a or Biacore T200 evaluation software v1.0 to determine kₐ and kd values. KD and t_{1/2} were then calculated from the experimentally determined kₐ and kd values as KD=kd/kₐ and t_{1/2}=In(2)/kd.

| Kd | koff | kon | t1/2 | Binder |
| --- | --- | --- | --- | --- |
| 0.778 nM | 0.000132 s⁻¹ | 170000 M⁻¹ s⁻¹ | 88 min | B1 |
| 148 nM | 0.00041 s⁻¹ | 2770 M⁻¹ s⁻¹ | 28 min | B2 |
| 2.99 nM | 0.000125 s⁻¹ | 42000 M⁻¹ s⁻¹ | 92 min | B3 |
| 1.25 nM | 9.6e-05 s⁻¹ | 76800 M⁻¹ s⁻¹ | 120 min | B4 |
| 1.22 nM | 0.000173 s⁻¹ | 142000 M⁻¹ s⁻¹ | 67 min | B5 |
| 1.89 nM | 0.000118 s⁻¹ | 62700 M⁻¹ s⁻¹ | 98 min | B6 |
| 5.52 nM | 0.000502 s⁻¹ | 91000 M⁻¹ s⁻¹ | 23 min | B7 |
| 17 nM | 0.00105 s⁻¹ | 61800 M⁻¹ s⁻¹ | 11 min | B8 |

Target: T1, human GREM1 (hGREM1-His; SEQ ID NO: 595)
Assay: SPR, Biacore T200, 37 C, mAb captured, hGREM1-His injected;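 note: HBS-EP running buffer containing heparin, association and dissociation phases tracked, KD computed as koff over kon and half-life derived from koff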
Protocol: as §1

| Kd | koff | kon | t1/2 | Binder |
| --- | --- | --- | --- | --- |
| 1.23 nM | 0.000215 s⁻¹ | 175000 M⁻¹ s⁻¹ | 54 min | B1 |
| 28.8 nM | 0.00202 s⁻¹ | 70300 M⁻¹ s⁻¹ | 6 min | B2 |
| 2.63 nM | 0.000245 s⁻¹ | 93000 M⁻¹ s⁻¹ | 47 min | B3 |
| 1.73 nM | 0.000195 s⁻¹ | 113000 M⁻¹ s⁻¹ | 59 min | B4 |
| 2.35 nM | 0.0004 s⁻¹ | 171000 M⁻¹ s⁻¹ | 29 min | B5 |
| 4.06 nM | 0.000422 s⁻¹ | 104000 M⁻¹ s⁻¹ | 27 min | B6 |
| 11.1 nM | 0.0014 s⁻¹ | 126000 M⁻¹ s⁻¹ | 8 min | B7 |
| 13.8 nM | 0.00197 s⁻¹ | 142000 M⁻¹ s⁻¹ | 6 min | B8 |

Target: T2, recombinant human GREM1 (hGREM1-His; …)
Assay: BLI Octet, mAb captured, 100 nM GREM1 without vs with 5 uM heparin;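 note: octet Red96 biolayer interferometry at 25 °C, antibodies captured on anti-human IgG Fc biosensors, association of GREM1 measured with versus without heparin in HEPES-buffered saline, pH 7.4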
Protocol: (§2) Binding measurements were conducted using an Octet Red96 label-free biomolecular interaction instrument (ForteBio). All experiments were performed at 25° C. using plate agitation at 1000 rpm. Solutions were made in an aqueous buffer containing 10 mM HEPES, 150 mM NaCl, 3 mM EDTA 0.05% P20, 0.1 mg/mL BSA and adjusted to pH of 7.4 (HBST buffer).
(§3) Anti-Human IgG Fc Capture biosensors (ForteBio) were separately loaded with 50 μg/mL solutions of 24 different anti-GREM1 antibodies for 60 seconds. Following a 30 second wash, duplicate biosensors for each antibody were submerged into wells containing either 100 nM GREM1 solutions or 100 nM GREM1 solutions containing 5 μM of heparin, measuring association for 300 seconds.

| Reduction in Signal from Heparin at 30 sec | Reduction in Signal from Heparin at 300 sec | Binder |
| --- | --- | --- |
| -0.07 nm | -0.04 nm | B1 |
| 0.19 nm | 0.42 nm | B2 |
| 0.28 nm | 0.02 nm | B3 |
| 0.27 nm | 0.02 nm | B4 |
| 0.05 nm | 0 nm | B5 |
| 0.15 nm | 0.02 nm | B6 |
| 0.16 nm | 0.07 nm | B7 |
| 0.18 nm | 0.06 nm | B8 |

Target: T2, recombinant human GREM1 (hGREM1-His; …)
Assay: BLI Octet, mAb captured, 100 nM GREM1;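 note: octet Red96 biolayer interferometry at 25 °C in pH 7.4 HEPES saline buffer, antibodies held on anti-human IgG Fc capture biosensors, then exposed to GREM1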
Protocol: as §2, §3

| Binding Signal with 30 sec Association | Binding Signal with 300 sec Association | Binder |
| --- | --- | --- |
| 0.15 nm | 0.5 nm | B1 |
| 0.2 nm | 0.68 nm | B2 |
| 0.33 nm | 0.45 nm | B3 |
| 0.33 nm | 0.48 nm | B4 |
| 0.2 nm | 0.49 nm | B5 |
| 0.2 nm | 0.46 nm | B6 |
| 0.23 nm | 0.49 nm | B7 |
| 0.24 nm | 0.52 nm | B8 |

Target: T2, recombinant human GREM1 (hGREM1-His; …)
Assay: BLI Octet, mAb captured, 100 nM GREM1 + 5 uM heparin;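 note: octet Red96 biolayer interferometry at 25 °C, antibodies captured on anti-human IgG Fc biosensors, pH 7.4 HEPES buffer with 0.1 mg/mL BSA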
Protocol: as §2, §3

| Binding Signal with 30 sec Association | Binding Signal with 300 sec Association | Binder |
| --- | --- | --- |
| 0.22 nm | 0.54 nm | B1 |
| 0.01 nm | 0.26 nm | B2 |
| 0.05 nm | 0.43 nm | B3 |
| 0.06 nm | 0.46 nm | B4 |
| 0.15 nm | 0.49 nm | B5 |
| 0.05 nm | 0.44 nm | B6 |
| 0.07 nm | 0.42 nm | B7 |
| 0.06 nm | 0.46 nm | B8 |

Target: T2, recombinant human GREM1 (hGREM1-His; …)
Assay: cell-based or functional assay

| hGREM1-His Inhibition IC50, M; W-20-17 cell differentiation assay (alkaline phosphatase) | Binder |
| --- | --- |
| 1.9 nM | B1 |
| 18 nM | B2 |
| 3.9 nM | B3 |
| 4.5 nM | B4 |
| 4.4 nM | B5 |
| 5.4 nM | B6 |
| 13 nM | B7 |
| 24 nM | B8 |

Target: T2, recombinant human GREM1 (hGREM1-His; …)
Assay: cell-based or functional assay
Remark: another data set of the same source

| IC50 [M], inhibition of hGREM1-His, W-20-17/BRE-luc luciferase (100 pM hBMP4, 10 nM hGREM1-His) | Binder |
| --- | --- |
| 5.8e-10 M | B1 |
| 4.5e-10 M | B2 |
| 5.4e-10 M | B3 |
| 7.8e-10 M | B4 |
| 9.5e-10 M | B5 |
| 1.2e-09 M | B6 |
| 1.2e-09 M | B7 |
| 9.5e-10 M | B8 |

Target: T1, human GREM1 (hGREM1-His; SEQ ID NO: 595)
Assay: competition ELISA, biotin-hGREM1-His (100 pM) binding to coated hBMP4
Protocol: Data were analyzed using a sigmoidal dose-response model within Prism™ software. […] The absorbance values of the wells containing the highest concentration for each antibody were used to determine the percent maximum blocking.

| % blocked at maximum Ab tested (20 nM) | IC50 | Binder |
| --- | --- | --- |
| 94% | 0.036 nM | B1 |
| 73% | 0.042 nM | B2 |
| 95% | < 0.025 nM | B3 |
| 93% | < 0.025 nM | B4 |
| 82% | 0.17 nM | B5 |
| 86% | < 0.025 nM | B6 |
| 93% | 0.052 nM | B7 |
| 59% | 0.45 nM | B8 |
